Measurements published in IntAct's records for PubMed 23622242.

B1: Double-stranded RNA-specific adenosine deaminase (Homo sapiens), P55265-1 (parent)
chain: MNPRQGYSLSGYYTHPFQGYEHRQLRYQQPGPGSSPSSFLLKQIEFLKGQLPEAPVIGKQTPSLPPSLPGLRPRFPVLLASSTRGRQVDIRGVPRGVHLRSQGLQRGFQHPSPRGRSLPQRGVDCLSSHFQELSIYQDQEQRILKFLEELGEGKATTAHDLSGKLGTPKKEINRVLYSLAKKGKLQKEAGTPPLWKIAVSTQAWNQHSGVVRPDGHSQGAPNSDPSLEPEDRNSTSVSEDLLEPFIAVSAQAWNQHSGVVRPDSHSQGSPNSDPGLEPEDSNSTSALEDPLEFLDMAEIKEKICDYLFNVSDSSALNLAKNIGLTKARDINAVLIDMERQGDVYRQGTTPPIWHLTDKKRERMQIKRNTNSVPETAPAAIPETKRNAEFLTCNIPTSNASNNMVTTEKVENGQEPVIKLENRQEARPEPARLKPPVHYNGPSKAGYVDFENGQWATDDIPDDLNSIRAAPGEFRAIMEMPSFYSHGLPRCSPYKKLTECQLKNPISGLLEYAQFASQTCEFNMIEQSGPPHEPRFKFQVVINGREFPPAEAGSKKVAKQDAAMKAMTILLEEAKAKDSGKSEESSHYSTEKESEKTAESQTPTPSATSFFSGKSPVTTLLECMHKLGNSCEFRLLSKEGPAHEPKFQYCVAVGAQTFPSVSAPSKKVAKQMAAEEAMKALHGEATNSMASDNQPEGMISESLDNLESMMPNKVRKIGELVRYLNTNPVGGLLEYARSHGFAAEFKLVDQSGPPHEPKFVYQAKVGGRWFPAVCAHSKKQGKQEAADAALRVLIGENEKAERMGFTEVTPVTGASLRRTMLLLSRSPEAQPKTLPLTGSTFHDQIAMLSHRCFNTLTNSFQPSLLGRKILAAIIMKKDSEDMGVVVSLGTGNRCVKGDSLSLKGETVNDCHAEIISRRGFIRFLYSELMKYNSQTAKDSIFEPAKGGEKLQIKKTVSFHLYISTAPCGDGALFDKSCSDRAMESTESRHYPVFENPKQGKLRTKVENGEGTIPVESSDIVPTWDGIRLGERLRTMSCSDKILRWNVLGLQGALLTHFLQPIYLKSVTLGYLFSQGHLTRAICCRVTRDGSAFEDGLRHPFIVNHPKVGRVSIYDSKRQSGKTKETSVNWCLADGYDLEILDGTRGTVDGPRNELSRVSKKNIFLLFKKLCSFRYRRDLLRLSYGEAKKAARDYETAKNYFKKGLKDMGYGNWISKPQEEKNFYLCPV
partner: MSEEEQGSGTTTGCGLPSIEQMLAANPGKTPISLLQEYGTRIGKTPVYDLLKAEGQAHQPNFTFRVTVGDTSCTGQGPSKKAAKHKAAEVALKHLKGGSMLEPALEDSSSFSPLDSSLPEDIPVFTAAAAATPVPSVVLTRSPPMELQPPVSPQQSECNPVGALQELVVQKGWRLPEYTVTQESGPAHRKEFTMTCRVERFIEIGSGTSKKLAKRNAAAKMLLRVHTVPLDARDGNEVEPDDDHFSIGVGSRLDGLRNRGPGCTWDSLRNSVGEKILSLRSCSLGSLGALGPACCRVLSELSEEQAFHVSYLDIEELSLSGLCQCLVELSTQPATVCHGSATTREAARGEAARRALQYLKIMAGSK

Variants of: B1
Details: with trbp2_human TARBP2, Q15633

Row | Variant | effect of a mutation on the interaction
1 | K554E;K555A;K558A;K665E;K666A;K669A;K777E;K778A;K781A | disrupting interaction strength
